Experimental data from patent US6309839.

Tests used:
[1] = molecular target: T1, Dda helicase (bacteriophage T4?) (UniProt P32270); conditions: biotin at position 60, streptavidin-bound; streptavidin displacement rate at 1 uM Dda, preincubated with DNA, 5 mM ATP, Mg2+
T1 sequence: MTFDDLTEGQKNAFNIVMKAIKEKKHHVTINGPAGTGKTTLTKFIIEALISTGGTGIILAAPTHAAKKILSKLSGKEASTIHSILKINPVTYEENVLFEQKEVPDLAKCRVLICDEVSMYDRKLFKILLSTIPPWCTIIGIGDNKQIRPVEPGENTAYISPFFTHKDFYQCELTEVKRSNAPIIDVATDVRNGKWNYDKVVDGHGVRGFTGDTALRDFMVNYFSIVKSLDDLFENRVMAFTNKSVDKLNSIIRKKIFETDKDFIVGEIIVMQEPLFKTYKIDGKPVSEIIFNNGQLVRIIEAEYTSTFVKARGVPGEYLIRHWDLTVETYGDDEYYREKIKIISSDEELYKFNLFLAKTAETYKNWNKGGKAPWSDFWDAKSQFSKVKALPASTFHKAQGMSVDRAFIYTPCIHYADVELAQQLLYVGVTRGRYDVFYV

[2] = molecular target: T2, gp41 helicase (bacteriophage T4?) (UniProt P04530); conditions: biotin at position 60, streptavidin-bound; streptavidin displacement rate at 4 uM gp41; 5 mM ATP, 12.5 mM Mg(OAc)2, 150 mM KOAc, pH 7.5, 37 C; none without ATP
T2 sequence: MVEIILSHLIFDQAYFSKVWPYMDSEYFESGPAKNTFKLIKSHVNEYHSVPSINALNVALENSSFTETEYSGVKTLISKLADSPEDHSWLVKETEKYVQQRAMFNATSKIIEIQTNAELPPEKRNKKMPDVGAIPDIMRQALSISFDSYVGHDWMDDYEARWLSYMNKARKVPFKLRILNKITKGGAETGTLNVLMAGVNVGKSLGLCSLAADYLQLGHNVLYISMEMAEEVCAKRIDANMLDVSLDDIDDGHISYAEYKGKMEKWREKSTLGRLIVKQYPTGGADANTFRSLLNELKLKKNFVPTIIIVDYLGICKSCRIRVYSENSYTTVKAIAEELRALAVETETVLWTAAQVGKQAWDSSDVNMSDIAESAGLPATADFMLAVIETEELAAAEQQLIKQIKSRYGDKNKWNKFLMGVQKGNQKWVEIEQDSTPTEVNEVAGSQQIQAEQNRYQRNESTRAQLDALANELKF

[3] = molecular target: NS3 helicase (full length) (Hepatitis C virus) (UniProt P26663); conditions: biotin at position 2, streptavidin-bound; streptavidin displaced from 5' end; 10 nM NS3, 100 nM oligonucleotide
Sequence of NS3 helicase (full length) (Hepatitis C virus) (P26663 1027-1657): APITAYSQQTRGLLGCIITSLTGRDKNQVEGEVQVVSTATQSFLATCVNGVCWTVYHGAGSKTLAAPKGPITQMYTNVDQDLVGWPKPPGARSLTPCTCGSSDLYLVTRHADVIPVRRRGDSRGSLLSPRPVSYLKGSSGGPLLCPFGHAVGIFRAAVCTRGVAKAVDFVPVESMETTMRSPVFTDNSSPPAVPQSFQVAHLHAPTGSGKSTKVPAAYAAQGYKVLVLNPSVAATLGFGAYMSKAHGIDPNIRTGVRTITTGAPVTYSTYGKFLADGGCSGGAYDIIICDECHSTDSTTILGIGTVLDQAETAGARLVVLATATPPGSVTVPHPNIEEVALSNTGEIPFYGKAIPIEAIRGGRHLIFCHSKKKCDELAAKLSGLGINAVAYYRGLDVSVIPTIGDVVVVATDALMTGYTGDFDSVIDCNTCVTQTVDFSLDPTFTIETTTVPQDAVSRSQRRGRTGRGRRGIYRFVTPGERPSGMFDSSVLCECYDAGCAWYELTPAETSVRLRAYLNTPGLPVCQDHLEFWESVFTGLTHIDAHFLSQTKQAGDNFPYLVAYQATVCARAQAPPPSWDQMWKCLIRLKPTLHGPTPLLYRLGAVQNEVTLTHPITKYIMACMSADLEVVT

Row | Substance | activity [1] | activity [2] | activity (fold over spontaneous dissociation) [3]
1 | 3'-bio-61-mer (called 62-mer in text) | 7.9 s⁻¹ | 0.17 min⁻¹ | 
2 | 5'-bio-60-mer |  |  | > 100
